The labels stand for the following.
T1: human C1s mutant M20 (A320S) (human, UniProt P09871 16-688)
T1 construct: The entry is the mutant itself
T1 sequence: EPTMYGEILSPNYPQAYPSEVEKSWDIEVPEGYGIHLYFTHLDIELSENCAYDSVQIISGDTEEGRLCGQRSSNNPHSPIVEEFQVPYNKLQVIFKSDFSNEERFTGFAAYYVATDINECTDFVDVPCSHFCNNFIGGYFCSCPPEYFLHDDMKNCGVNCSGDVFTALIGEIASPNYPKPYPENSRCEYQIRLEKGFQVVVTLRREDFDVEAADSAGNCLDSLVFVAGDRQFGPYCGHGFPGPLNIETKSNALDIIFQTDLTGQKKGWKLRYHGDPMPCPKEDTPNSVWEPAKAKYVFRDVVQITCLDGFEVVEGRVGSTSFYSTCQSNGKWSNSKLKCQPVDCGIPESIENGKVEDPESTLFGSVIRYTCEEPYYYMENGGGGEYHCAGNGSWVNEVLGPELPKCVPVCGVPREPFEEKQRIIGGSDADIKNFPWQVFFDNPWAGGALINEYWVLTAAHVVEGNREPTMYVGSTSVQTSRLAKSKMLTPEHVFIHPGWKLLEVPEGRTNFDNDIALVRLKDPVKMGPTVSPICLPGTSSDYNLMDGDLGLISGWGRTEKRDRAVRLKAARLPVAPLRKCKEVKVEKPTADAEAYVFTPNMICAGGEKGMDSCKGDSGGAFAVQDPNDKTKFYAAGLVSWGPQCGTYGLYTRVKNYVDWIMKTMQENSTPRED

T2: human C1s mutant M1 (M277I) (human, UniProt P09871 16-688)
T2 construct: The entry is the mutant itself
T2 sequence: T1 sequence with M277I, S319A

T3: full-length human C1s (produced in house) (human, UniProt P09871 16-688)
T3 construct: Called full-length; Partly auto-cleaved at R422-I423 on blots; also called HuC1s; Hu C1s
T3 sequence: T1 sequence with S319A

B1: Anti-C1s antibody hz2-8 (H1L2 G80A) (antibody, V domains shown)
VH: QVQLVQSGAEVKKPGASVKVSCKASGFNIKEYYMHWVRQAPEQGLEWMGWIDPENADTIYAQKFQGRVTITADTSTNTAYMELSSLRSEDTAVYYCARSRLFFAYWGQGTLVTVSS
VL: DIQMTQSPKSLSASVGDRVTITCRASQDVRTALDWYQQKPGQSPKLLIYSASYRYSGVPSRFSGSGSGTDFTLTISSLQPEDFATYYCQQQYTTPYTFGQGTKLEIKR
notes: Humanized variant with G80A in HC CDR2 (already in the entry), human IgG1 / kappa
B2: Anti-C1s antibody hz2-8 (H1L2 G80A/T82A) (antibody, V domains shown)
VH: B1 VH with T58A
VL: B1 VL
notes: Humanized variant with G80A and T82A in HC CDR2 (already in the entry), human IgG1 / kappa
B3: Anti-C1s antibody hz2-7(H1L2) (antibody, V domains shown)
VH: EVQLLESGGGLVQPGGSLRLSCAASGFTFSNYFMNWVRQAPGKGLEWVSEIRLKFTNYATHYADSVKGRFTISRDDSKSTLYLQMNSLRAEDTAVYYCTRDYGSRNGYFDYWGQGTLVTVSS
VL: DIVMTQTPLSLPVTPGEPASISCRSSKSLLHSNGNTFLYWFLQKPGQSPQLLIYRMSNLASGVPDRFSGSGSGTDFTLKISRVEAEDVGVYYCMQHLEYPYTFGGGTKLEIKR
notes: Humanized, human IgG1 / kappa; also called hz2-7(1L2)
B4: Anti-C1s antibody 2-7 (antibody, human IgG1, kappa, V domains shown)
VH: EVKLEESGGGLVPPGGSMKLSCVASGFTFSNYFMNWVRQSPEKGLEWVAEIRLKFTNYATHYAESVEGRFTISRDDSKSSVYLQMNNLRAEDTGIYYCTRDYGSRNGYFDYWGQGTTLTVSS
VL: DIVMTQAAPSVPVTPGESVSISCRSSKSLLHSNGNTFLYWFLQRPGQSPQLLIYRMSNLASGVPDRFSGSGSGTAFTLRVSRVEAEDVGIYYCMQHLEYPYTFGGGTKLEIKT
notes: the HC/LC entries may hold it too; also called clone 2-7
B5: Anti-C1s antibody 2-8 (antibody, V domains shown)
VH: EVQLQQSGAELVRPGALVKLSCKASGFNIKEYYMHWVKQRPEQGLEWIGWIDPENGDTIYDPKFQGKASITADTSSNTAYLQLSSLTSEDTAVYYCARSRLFFAYWGQGTLVTVSA
VL: DIVMTQSHKFMSTSVGDRVSFTCKASQDVRTAVDWYQQKPGQSPKLLIYSASYRYTGVPDRFTGTGSGTDFTFTISSVQAEDLAVYFCQQQYTTPYTFGGGTKLEIKT
notes: the HC/LC entries may hold it too; also called clone 2-8

Where a chain is given by its changes, count along the chain named. Numbers in names are those of the source.

One assay addresses T1, human C1s mutant M20 (A320S). Nature of the assay: ELISA, plate coated with human C1s mutant M20: A320S, OD450nm. The procedure:
(§1) ELISA was carried out by first coating 96-well plates with 200 ng/well of full-length or truncated C1s proteins overnight. The next morning, plates were blocked with SuperBlock T20 blocking buffer (Thermo Scientific 37536) for 1 h with gentle shaking. Then, various concentrations of anti-C1s antibodies diluted in SuperBlock T20 blocking buffer were added to the plates and incubated for 1 h with gentle shaking. Mouse IgG (Sigma-Aldrich 15381) and human IgG1 (BioXCell BP0297) were used as negative controls. The plates were washed before incubating with HRP conjugated secondary antibodies diluted in SuperBlock T20 blocking buffer (goat anti-mouse IgG (H+L) cross-adsorbed secondary antibody HRP (Invitrogen G-21040) or goat anti-human IgG antibody, HRP conjugate (Millipore AP309P)) for 1 h with gentle shaking. At last, the plates were washed and color developed with ELISA liquid HRP substrate (Sigma-Aldrich), followed by stopping the reaction with addition of 1M H₂SO₄ in the same volume as the ELISA liquid substrate. Bound antibody was measured by absorbance at OD₄₅₀ₙₘ.
(§2) Binding of anti-C1s antibodies to mutants M1-M20 of human C1s was measured by ELISA as described in Example 4, and results are shown in FIGS. 6B-6U. All anti-C1s humanized variants including hz2-7(H1L2), hz2-8(H1L2 G80A) and hz2-8(H1L2 G80A/T82A) maintained strong binding properties to the majority (16 out of 20) of C1s mutants including M1 (FIG. 6B), M2 (FIG. 6C), M3 (FIG. 6D). M4 (FIG. 6E), M7 (FIG. 6H), M8 (FIG. 6I), M10 (FIG. 6K), M11 (FIG. 6L), M12 (FIG. 6M), M13 (FIG. 6N), M15 (FIG. 6P), M16 (FIG. 6Q), M17 (FIG. 6R), M18 (FIG. 6S), M19 (FIG. 6T) and M20 (FIG. 6U).
On the technique in general: In an ELISA, binding on a coated surface is turned into a signal by an enzyme label.
Turning to B1, the EC50 (as a rule, the concentration at which the effect is half-maximal) stood at 3 ng/mL.
Take B2: it took 5 ng/mL to reach a half-maximal effect (EC50). This EC50 is about 1.7-fold higher than that of the molecule before.
Take B3: the EC50 was 4 ng/mL.

The next assay addresses T2, human C1s mutant M1 (M277I). Nature of the assay: ELISA, plate coated with human C1s mutant M1: M277I, OD450nm. The procedure:
as §1, §2
B1 returned an EC50 of 7 ng/mL.
On the same count and under the same terms, for B2 the value was 5 ng/mL; for B3, 9 ng/mL.

The target of the next assay is T3, full-length human C1s (produced in …). Nature of the assay: ELISA, plate coated with 200 ng/well full-length HuC1s, OD450nm. The procedure: as §1
In the case of B4, a half-maximal response (EC50) required 6 ng/mL.
Same read-out and setting: next, B5: 8 ng/mL; B3: 5 ng/mL.
